Data set [1] relates to T1, COc1cc(CO)ccc1O.
T1 construct: full length, 526 residues, C-terminal His6 tag (pBAD-EUGO-His6x), E. coli NEB10beta; covalent FAD; homodimer; mutants for crystals from His-SUMO fusion, tag cleaved
Kind of data set: purified protein. Format: biochemical, Rhodococcus jostii. The settings on record: 50 mM KPi pH 7.5, O2 co-substrate, 0.05 µM enzyme.

The subject of data set [2] is T2, CCCc1ccc(O)c(OC)c1.
T2 construct: full length, 526 residues, C-terminal His6 tag (pBAD-EUGO-His6x), E. coli NEB10beta; covalent FAD; homodimer; mutants for crystals from His-SUMO fusion, tag cleaved
The data set can be described thus: purified protein. Format: biochemical, Rhodococcus jostii. The conditions noted are these: 50 mM KPi pH 7.5, 10% v/v DMSO, 10 µM to 1 mM substrate, O2 co-substrate.

As to “EUGO (eugenol oxidase) (Rhodococcus jostii RHA1; A423M/H434Y/I445D/S518P/S81H)”, in data set [1], the Km is listed as 177.6 ± 15.8 µM and the turnover number (kcat) is 4.8 ± 0.2 s⁻¹.

Consider “EUGO (eugenol oxidase) (Rhodococcus jostii RHA1; A423M/D151E/H434Y/I445D/S394V/S518P/S81H)”, for which, in data set [2] (1.0 µM enzyme), the Km is on record as 3.0 ± 0.2 µM and the kcat amounted to 0.08 ± 0.002 s⁻¹. In addition, in data set [1], the Michaelis constant (Km) worked out at 2.9 ± 0.2 µM and the catalytic constant (kcat) came out at 0.15 ± 0.002 s⁻¹.

Turning to “EUGO (eugenol oxidase) (Rhodococcus jostii RHA1; A423M/D151E/H434Y/I445D/Q425S/S394V/S518P/S81H)”, in data set [2] (100 nM enzyme), the Km stood at 7.4 ± 0.4 µM and the turnover number (kcat) is 0.43 ± 0.007 s⁻¹. For the same substance, in data set [1], the Km is 94.9 ± 7.8 µM and the kcat amounted to 2.8 ± 0.07 s⁻¹.

As to “EUGO (eugenol oxidase) (Rhodococcus jostii RHA1; A423M/H434Y/I445D/S394V/S518P/S81H)”, in data set [2] (1.0 µM enzyme), the Km was 3.4 ± 0.4 µM and the kcat was 0.028 ± 0.0003 s⁻¹. In data set [1], the Km came to 7.1 ± 0.6 µM and the kcat worked out at 0.075 ± 0.001 s⁻¹.

What is called Km is the concentration of substrate that gives half-maximal velocity. As usually defined, the kcat is the number of substrate molecules converted per active site and unit of time at saturation.

Values taken from PMC9684555, “Structure- and computational-aided engineering of an oxidase to produce isoeugenol from a lignin-derived compound” (Nature Communications, 2022).
